Measurements from PMC8677749.

Target: HBV core protein (Cp) dimer (Hepatitis B virus (strain NC_003977.1, subtype ayw?)) (UniProt P03146)
Test: NCP assembly, SEC-MALLS
Settings: 20 mM HEPES pH 7.5, 250 mM NaCl, 5 mM DTT, up to 0.15 M GuHCl, ~20 C; 1 nM RNA, Cp dimer titrated to 1.2 uM

HBV core protein (Cp) dimer (Hepatitis B virus (strain NC_003977.1, subtype ayw?)), sequence (P03146 whole entry): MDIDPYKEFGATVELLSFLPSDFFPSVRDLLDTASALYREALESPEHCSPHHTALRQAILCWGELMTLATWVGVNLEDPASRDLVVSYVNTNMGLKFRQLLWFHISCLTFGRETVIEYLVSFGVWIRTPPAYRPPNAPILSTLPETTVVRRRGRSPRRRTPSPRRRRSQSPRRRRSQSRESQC

## HBV JQ707375.1 gRNA (pgRNA) wild type
  binding signal (% RNA yield after RNase A): 81
